From patent US20240392000A1 (BIOGRAPH 55, published 2024)

Molecular target: CD38 antigen (in solution, Octet analyte) (human, UniProt P28907 43-300, limits assumed)
Assay: BLI (Octet Red), antibody captured on AHC sensor, antigen in solution, 1:1 model
Protocol: Binding experiments were performed on Octet Red at 25° C. The antibodies were loaded onto anti-hIgG Fc Capture (AHC) biosensors for 300 seconds. The ligand-loaded sensors were dipped into a two-fold series dilution (starting at 300 nM) of the antigens (CD19 and CD38) for 240 seconds of CD19 and 150 seconds of CD38 for association followed by dissociation for 600 seconds of CD19 and 130 seconds of CD38. Kinetic constants were calculated using a monovalent (1:1) binding model.

Row | Kd | Binder
1 | 94.4 nM | BS1M-4 (BS1 anti-CD38 arm CDR-H2 variant RVIPHLGTAN) (bispecific antibody, human IgG1, kappa, BS1 format) heavy: not shown VH: QVQLVQSGAEVKKPGSSVKVSCKASGGTFSSYAFSWVRQAPGQGLEWMGRVIPHLGTANSAQKFQGRVTITADKSTSTAYMELSSLRSEDTAVYYCARDDIAALGPFDYWGQGTLVTVSS light: not shown
2 | 60.5 nM | BS1M-7 (BS1 anti-CD38 arm CDR-H2 variant RVIPQLGTAN) (bispecific antibody, human IgG1, kappa, BS1 format) heavy: not shown VH: QVQLVQSGAEVKKPGSSVKVSCKASGGTFSSYAFSWVRQAPGQGLEWMGRVIPQLGTANSAQKFQGRVTITADKSTSTAYMELSSLRSEDTAVYYCARDDIAALGPFDYWGQGTLVTVSS light: not shown
